This note sets out measurements from patent US8008547B2, “Glyphosate-N-acetyltransferase (GAT) genes” (E.I. duPont de Nemours, priority 2000, dated 2011).

One may read the Km as the substrate concentration at which the rate is half of its maximum.

The nature of this series: Standard protocol for determination of kcat and KM (continuous spectrophotometric assay, Acetyl CoA hydrolysis at 235 nm). Format: biochemical. Particulars: purified protein, about 23° C., 0.2 mM acetyl CoA; for Kcat: 20 mM HEPES pH 6.8, 10% ethylene glycol; for Km: pH 6.8, glyphosate 0.125 to 10 mM. Put shortly:
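KM from initial rates over 0.125–10 mM glyphosate, fitted by Lineweaver-Burke transformation of Michaelis-Menten; kcat/KM computed as kcat divided by KM. Continuous spectrophotometric read of acetyl-CoA hydrolysis at 235 nm.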

B1: SEQ ID NO: 428: GAT polypeptide (protein)
chain: MIEVKPINAEDTYEIRHRILRPNQPLEACMYETDLLGGTFHLGGYYRGKLISIASFHQAEHPELEGQKQYQLRGMATLEGYREQKAGSTLIRHAEELLRKKGADLLWCNARTSASGYYKKLGFSDQGEVYDIPPVGPHILMYKKLT
modifications: 9_21C8
notes: GAT polypeptide
For B1, the Kcat is 0.477 s⁻¹ and the Km came to 1200 µM.

B2: SEQ ID NO: 430: GAT polypeptide (protein)
chain: MIEVKPINAEDTYEIRHRILRPNQPLEACKYETDLLGGTLHLGGYYRGKLVSIASFHQAEHPELEGQKQYQLRGMATLEGYRGQKAGSTLIRHAEELLRKKGADLLWCNARTSASGYYKKLGFSEQGGVYDIPPVGPHILMYKKLT
modifications: 9_23A10
notes: GAT polypeptide
Consider B2, for which the Kcat stood at 0.35 s⁻¹ and the Km was 1000 µM.

B3: SEQ ID NO: 436: GAT polypeptide (protein)
chain: MIEVKPINAEDTYEIRHRILRPNQPLEACMYETDLLGGTFHLGGYYQGKLISIASFHNAEHSELEGQKQYQLRGMATLEGYREQKAGSTLIRHAEELLRKKGADLLWCNARTSVSGYYEKLGFSEQGEVYDIPPVGPHILMYKKLA
modifications: 9C6
notes: GAT polypeptide
Turning to B3, the Kcat worked out at 0.217 s⁻¹ and the Km came to 2500 µM.

B4: SEQ ID NO: 429: GAT polypeptide (protein)
chain: MIEVKPINAEDTYEIRHRILRPNQPLEACKYETDLLGGTFHLGGYYRGKLVSIASFHQAEHPELEGQKQYQLRGMATLEGYREQKAGSTLIRHAEELLRKKGADLLWCNARTSASGYYKKLGFSEQGEVYDLPPTGPHILMYKKLT
modifications: 9_22B1
notes: GAT polypeptide
As to B4, the Kcat amounted to 0.835 s⁻¹ and the Km came out at 1400 µM.

B5: SEQ ID NO: 432: GAT polypeptide (protein)
chain: MIEVKPINAEDTYEIRHRILRPNQPLEACKYETDLLGGTLHLGGYYRGKLISIASFHQAEHPELEGQKQYQLRGMATLEGYREQKAGSTLIRHAEELLRKKGADLIWCNARTSASGYYKKLGFSEQGEVYDIPPVGPHILMYKKLT
modifications: 9_4H10
notes: GAT polypeptide
In the case of B5, the Kcat was found to be 1.688 s⁻¹ and the Km was determined as 1500 µM.

B6: SEQ ID NO: 433: GAT polypeptide (protein)
chain: MIEVKPINAEDTYEIRHRILRPNQPLEACMYETDLLGGTFHLGGYYRGKLISIASFNQAEHPELEGQKQYQLRGMATLEGYREQKAGSTLIRHAEELLRKKGADLLWCNARTSASGYYKKLGFSEQGEVYDIPPVGPHILMYKKLT
modifications: 9_4H8
notes: GAT polypeptide
Consider B6, for which the Kcat worked out at 0.785 s⁻¹ and the Km was 600 µM.

B7: SEQ ID NO: 434: GAT polypeptide (protein)
chain: MIEVKPITAEDTYEIRHRILRPNQPLEACKYETDLLGGTFHLGGYYRGKLISIASFHQAEHPELEGQKQYQLRGMATLEGYREQKAGSTLIRHAEELLRKKGADLLWCNARTSASGYYKKLGFSEQGEVYDIPPTGPHILMYKKLT
modifications: 9_8H1
notes: GAT polypeptide
For the molecule B7, the Kcat came to 1.25 s⁻¹ and the Km is 1700 µM.

B8: SEQ ID NO: 431: GAT polypeptide (protein)
chain: MIEVKPINAEDTYEIRHRILRPNQPLEACKYETDLLRGAFHLGGYYRGKLISIASFHQAEHSELEGQKQYQLRGMATLEGYREQKAGSTLIRHAEALLRKKGADLLWCNARTSASGYYKKLGFSEQGEVYDIPPTGPHILMYKKLT
modifications: 9_24F6
notes: GAT polypeptide
As to B8, the Kcat was 0.875 s⁻¹ and the Km came out at 900 µM.

B9: SEQ ID NO: 435: GAT polypeptide (protein)
chain: MIEVKPINAEDAYEIRHRILRPNQPLEACKYETDLLGSTFHLGGYYRGKLISIASFHQAEHPELEGQKQYQLRGMATLEEYREQKAGSTLIRHAEELLRKKGADLLWCNARTSASGYYKKLGFSEQGEVYDIPPVGPHILMYKKLT
modifications: 9_9H7
notes: GAT polypeptide
On to B9, for which the Kcat stood at 0.467 s⁻¹ and the Km came to 700 µM.
